According to patent publication US20250230239A1:
Numbering of substitutions follows the chain as printed.

B1: monovalent bispecific antibody comprising anti-CD3 scFv v619_HLh (SEQ ID NO: 28) and a Her2-binding domain (bispecific antibody, part only; not given: Her2 arm and Fc, not shown: another chain or arm of the molecule; a dimerising Fc or GST; small tags and cut ends)
scFv: EVQLVESGGGLVQPGGSLKLSCAASGFTFSTYAMNWVRQASGKGLEWVGRIRSKYNNYATYYADSVKDRFTISRDDSKNTAYLQMNSLKTEDTAVYYCVRHGNFGNSYVSWWAYWGQGTLVTVSSGGGGSGGGGSGGGGSQTVVTQEPSLTVSPGGTVTLTCGSSTGAVTTSNYVNWVQQKPGQAPRGLIGGTNKRAPGTPARFSGSLIGGKAALTLSGAQPEDEAEYYCVLWYSNRWVFGGGTKLTVL
B2: monovalent bispecific antibody comprising anti-CD3 scFv v619-HLh-CC4 (SEQ ID NO: 32) and a Her2-binding domain (bispecific antibody, part only; not given: Her2 arm and Fc, not shown: another chain or arm of the molecule; a dimerising Fc or GST; small tags and cut ends)
scFv: B1 scFv with W112F, Q117C, Q184C
modifications: Engineered VH-VL disulfide (Cys at VH 117 and VL 44 of the domains) within the scFv

Biological target: recombinant his-tagged and biotinylated CD3ε protein (AcroBiosystems, CDE-H8223), human (human) (UniProt P07766)
Assay: BLI (Octet RED96), biotinylated his-tagged CD3ε on SSA biosensor, bispecific as analyte 200 to 3.125 nM

Chain of recombinant his-tagged and biotinylated CD3ε protein (AcroBiosystems, CDE-H8223), human (human) (P07766 23-126 limits assumed): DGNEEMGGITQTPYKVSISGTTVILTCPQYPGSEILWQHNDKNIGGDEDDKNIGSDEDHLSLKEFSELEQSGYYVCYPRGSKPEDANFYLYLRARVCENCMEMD

Row | Binder | Kd [nM]
1 | B1 | 1.66 to 5.64
2 | B2 | 11
